Blank lines part the entries; values can stand above or below the molecule they belong to.
Target: T1, myc-tagged mouse Ccr1 Y18F mutant (mouse) (UniProt P51675)
T1 sequence: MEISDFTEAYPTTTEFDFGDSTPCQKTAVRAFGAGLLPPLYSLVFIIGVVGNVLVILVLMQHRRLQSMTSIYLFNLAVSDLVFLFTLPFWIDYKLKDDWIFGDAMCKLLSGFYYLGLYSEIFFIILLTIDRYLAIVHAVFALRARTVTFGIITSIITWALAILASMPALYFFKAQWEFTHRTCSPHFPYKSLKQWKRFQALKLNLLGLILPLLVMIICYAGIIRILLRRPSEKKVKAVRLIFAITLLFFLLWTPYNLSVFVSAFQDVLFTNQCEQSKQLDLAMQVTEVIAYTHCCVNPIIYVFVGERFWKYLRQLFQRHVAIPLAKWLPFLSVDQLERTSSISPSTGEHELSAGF

internalisation: cell surface receptor left (MFI in % of buffer alone) after 100 nM chemokine, FACS, L1.2 cells (% cell surface receptor): 20
Molecule: recombinant mouse Ccl9/10 (ligand)

internalisation: cell surface receptor left (MFI in % of buffer alone) after 100 nM chemokine, FACS, L1.2 cells (% cell surface receptor): 35
B1: recombinant mouse Ccl3 (ligand)
chain: APYGADTPTACCFSYSRKIPRQFIVDYFETSSLCSQPGVIFLTKRNRQICADSKETWVQEYITDLELNA
